From patent US7892767B2, “Phosphospecific chemokine receptor antibodies” (Washington University in St. Louis, priority 2005, dated 2011) come the findings set out here.

The experiment has as its target T1, CXCR4 (Homo sapiens, UniProt P61073).
T1 construct: lysates from the glioblastoma cell line LN428, which is known to express high levels of CXCR4; endogenous in cells; host or cells: LN428 GBM cell line
As to the kind of experiment: Stimulated CXCR4 phosphorylation in LN428 GBM cells (western blot). The experiment is classed as cell-based. The protocol:
Cell Culture, transfections and stimulation of CXCR4 phosphorylation. The U87 glioblastoma multiforme (GBM, grade IV) cell line was obtained from the American Type Culture Collection. The LN428 GBM cell line was a kind gift of Dr Erwin van Meir (Winship Cancer Center, Emory University, Atlanta, Ga.). U87 cells were grown in minimum essential a media supplemented with 10% fetal bovine serum ((FBS), Biomedia, Foster City, Calif.). LN428 cells were grown in DMEM (Fisher, Pittsburgh, Pa.) supplemented with 10% horse serum (Sigma). All cells were grown in the presence of penicillin-streptomycin. The coding sequence for human CXCR4 was obtained by high fidelity RT-PCR (Superscript III Platinum, Invitrogen), and cloned into the expression vector pMSCVneo (Clontech, Palo Alto, Calif.). Transfections were performed with 0.3 μg of plasmid DNA in 20 μl Lipofectamine (Invitrogen)/35 mm^2 tissue culture dish for 9 hours according to the manufacturer's instructions. Cells recovered in Optimem supplemented with 10% FBS. Transfected and non-transfected cells were placed in serum free media for 24 hours prior to treatment with agents to stimulate CXCR4 phosphorylation. Treatment was usually for 0 or 10 minutes with 1 μg/ml CXCL12 (Peprotech, Rocky Hill N.J.), 4 μM 4-Phorbol 12-myristate 13-acetate (PMA) or 10 nM EGF. In some experiments, CXCL12 was washed away and cells were incubated for an additional 20 minutes in serum free media alone.
Western Blot Analysis. […] Peroxide activity was detected using the enhanced chemiluminescence Supersignal West Dura system (Pierce, Rockford, Ill.). […]
The utility of these antibodies for evaluating the relationship between ligand binding and CXCR4 function is dependent upon their ability to distinguish a ligand activated form of the receptor. […] Serum starved LN428 cells were treated with 1 μg/ml CXCL12 for 0 or 10 minutes and the abundance of phospho-CXCR4 was determined by western blot and immuno-localization in fixed cells. […]
For orientation: In western blotting, separated proteins are transferred to a membrane and probed.

[1] abbreviates: 1 μg/ml CXCL12, 4 μM PMA or 10 nM EGF.

T1 sequence (P61073 whole entry): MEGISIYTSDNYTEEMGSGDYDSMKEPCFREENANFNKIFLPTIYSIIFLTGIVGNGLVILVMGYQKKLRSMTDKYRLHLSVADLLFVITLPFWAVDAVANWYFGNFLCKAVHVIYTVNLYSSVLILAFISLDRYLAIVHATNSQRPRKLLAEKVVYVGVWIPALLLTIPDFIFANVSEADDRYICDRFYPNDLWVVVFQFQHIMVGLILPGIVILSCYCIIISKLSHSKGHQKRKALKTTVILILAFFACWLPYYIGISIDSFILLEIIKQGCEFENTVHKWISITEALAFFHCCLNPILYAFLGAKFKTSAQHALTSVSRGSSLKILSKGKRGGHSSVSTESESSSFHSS

B1: EGF: growth factor, ligand of the EGF receptor (protein, UniProt P01133 23-1207, looked up)
Pro-epidermal growth factor: PQHWSCPEGTLAGNGNSTCVGPAPFLIFSHGNSIFRIDTEGTNYEQLVVDAGVSVIMDFHYNEKRIYWVDLERQLLQRVFLNGSRQERVCNIEKNVSGMAINWINEEVIWSNQQEGIITVTDMKGNNSHILLSALKYPANVAVDPVERFIFWSSEVAGSLYRADLDGVGVKALLETSEKITAVSLDVLDKRLFWIQYNREGSNSLICSCDYDGGSVHISKHPTQHNLFAMSLFGDRIFYSTWKMKTIWIANKHTGKDMVRINLHSSFVPLGELKVVHPLAQPKAEDDTWEPEQKLCKLRKGNCSSTVCGQDLQSHLCMCAEGYALSRDRKYCEDVNECAFWNHGCTLGCKNTPGSYYCTCPVGFVLLPDGKRCHQLVSCPRNVSECSHDCVLTSEGPLCFCPEGSVLERDGKTCSGCSSPDNGGCSQLCVPLSPVSWECDCFPGYDLQLDEKSCAASGPQPFLLFANSQDIRHMHFDGTDYGTLLSQQMGMVYALDHDPVENKIYFAHTALKWIERANMDGSQRERLIEEGVDVPEGLAVDWIGRRFYWTDRGKSLIGRSDLNGKRSKIITKENISQPRGIAVHPMAKRLFWTDTGINPRIESSSLQGLGRLVIASSDLIWPSGITIDFLTDKLYWCDAKQSVIEMANLDGSKRRRLTQNDVGHPFAVAVFEDYVWFSDWAMPSVMRVNKRTGKDRVRLQGSMLKPSSLVVVHPLAKPGADPCLYQNGGCEHICKKRLGTAWCSCREGFMKASDGKTCLALDGHQLLAGGEVDLKNQVTPLDILSKTRVSEDNITESQHMLVAEIMVSDQDDCAPVGCSMYARCISEGEDATCQCLKGFAGDGKLCSDIDECEMGVPVCPPASSKCINTEGGYVCRCSEGYQGDGIHCLDIDECQLGEHSCGENASCTNTEGGYTCMCAGRLSEPGLICPDSTPPPHLREDDHHYSVRNSDSECPLSHDGYCLHDGVCMYIEALDKYACNCVVGYIGERCQYRDLKWWELRHAGHGQQQKVIVVAVCVVVLVMLLLLSLWGAHYYRTQKLLSKNPKNPYEESSRDVRSRRPADTEDGMSSCPQPWFVVIKEHQDLKNGGQPVAGEDGQAADGSMQPTSWRQEPQLCGMGTEQGCWIPVSSDKGSCPQVMERSFHMPSYGTQTLEGGVEKPHSLLSANPLWQQRALDPPHQMELTQ
modifications: Pro-epidermal growth factor
notes: growth factor, ligand of the EGF receptor
For B1, under setting [1], the P338 phosphorylation stimulated result was “not” and the P339 phosphorylation entry is “stimulated”. Also, the “P339-CXCR4 immunoreactivity compared with response to CXCL12” value (4 μM PMA or 10 nM EGF) is “greater”.
